# Source: patent US10967068B2, “Stability-modulating linkers for use with antibody drug conjugates” (priority 2014, dated 2021)
# *1 amine or outer side, *2 acyl side, *3 side chain or, on linkers, in order; H or OH if unused. Where a SMILES comes first, the peptide text is derived from it. [ ]: non-standard residue; d: D form. The star is where a group is joined. Dolaproine = CO[C@@H]([C@@H]1CCCN1)[C@@H](C)C(=O)O; Acetyl(2-(4-imidazolyl)) = O=C(Cc1c[nH]cn1)*; Dil = CC[C@H](C)[C@H](NC)[C@@H](CC(=O)O)OC; Imidazole4carbonyl = O=C(c1cnc[nH]1)*; PABC = O=C(OCc1ccc(N[*:1])cc1)[*:2]; Doe = c1ccc(C[C@H](N*)c2nccs2)cc1; Cit = NC(=O)NCCC[C@H](N)C(=O)O; Isobutyryl = CC(C)C(=O)*; PhAc = O=C(Cc1ccccc1)*; Me2Gly = CN(C)CC(=O)*; Aib = CC(C)(N)C(=O)O; CO = O=C([*:1])[*:2]; Piv = CC(C)(C)C(=O)*; Glycolyl = O=C(CO)*; Sar = CNCC(=O)O
# Assay: In Vitro Stability Assay—Mouse Plasma
# Assay type: in vitro ADME
# Settings: for Conjugate stability (%): % DAR remaining after plasma 3 or 4.5 days; for DAR: before plasma incubation
# Method: 100-200 ug of ADC were incubated in mouse plasma (provided by Bioreclamation) supplemented with 1×PBS to the final ADC concentration of 0.125 mg/mL. Following incubation for 3-7 days, samples were diluted with an equal volume of 1×PBS, and ADCs were isolated using Trop2 antigen coupled to CNBr-activated Sepharose (GE Healthcare) using standard protocols. Drug-antibody ratios were assessed before and after in vitro exposure using HIC methods and mass spectrometry.
# DAR values for conjugates purified after plasma incubation were compared to DAR values prior to plasma treatment.
structure (smiles),measurement,setting,value
"CC[C@H](C)[C@@H]([C@@H](CC(=O)N1CCC[C@H]1[C@H](OC)[C@@H](C)C(=O)N[C@@H](Cc1ccccc1)c1nccs1)OC)N(C)C(=O)[C@@H](NC(=O)C(C)(C)NC(=O)OCc1ccc(NC(=O)[C@H](CCCNC(N)=O)NC(=O)[C@@H](NC(=O)[C@H](CCCCN)NC(=O)C(C)(C)C)C(C)C)cc1)C(C)C [Example 2, N˜2˜-(2,2-Dimethylpropanoyl)-L-lysyl-L-valyl-N-{4-[(8S,11S,12R)-11-[(2S)-butan-2-yl]-12-(2-{(2S)-2-[(1R,2R)-1-methoxy-2-methyl-3-oxo-3-{[(1S)-2-phenyl-1-(1,3-thiazol-2-yl)ethyl]amino}propyl]pyrrolidin-1-yl}-2-oxoethyl)-5,5,10-trimethyl-3,6,9-trioxo-8-(propan-2-yl)-2,13-dioxa-4,7,10-triazatetradec-1-yl]phenyl}-N˜5˜-carbamoyl-L-ornithinamide] (Piv-KV[Cit][PABC][Aib]V[Dil][Dolaproine]-Doe)",DAR after plasma incubation for 3 to 4.5 days,attachment position L11B,0
same,Conjugate stability (%),attachment position L11B,0%
same,DAR,attachment position L11B,1.54
"CC[C@H](C)[C@@H]([C@@H](CC(=O)N1CCC[C@H]1[C@H](OC)[C@@H](C)C(=O)N[C@@H](Cc1ccccc1)c1nccs1)OC)N(C)C(=O)[C@@H](NC(=O)C(C)(C)NC(=O)OCc1ccc(NC(=O)[C@H](CCCNC(N)=O)NC(=O)[C@@H](NC(=O)[C@H](CCCCN)NC(=O)Cc2ccccc2)C(C)C)cc1)C(C)C [Example 3, N˜2˜-(Phenylacetyl)-L-lysyl-L-valyl-N-{4-[(8S,11S,12R)-11-[(2S)-butan-2-yl]-12-(2-{(2S)-2-[(1R,2R)-1-methoxy-2-methyl-3-oxo-3-{[(1S)-2-phenyl-1-(1,3-thiazol-2-yl)ethyl]amino}propyl]pyrrolidin-1-yl}-2-oxoethyl)-5,5,10-trimethyl-3,6,9-trioxo-8-(propan-2-yl)-2,13-dioxa-4,7,10-triazatetradec-1-yl]phenyl}-N˜5˜-carbamoyl-L-ornithinamide] (PhAc-KV[Cit][PABC][Aib]V[Dil][Dolaproine]-Doe)",DAR after plasma incubation for 3 to 4.5 days,attachment position L11B,0
same,Conjugate stability (%),attachment position L11B,0%
same,DAR,attachment position L11B,1.66
"CC[C@H](C)[C@@H]([C@@H](CC(=O)N1CCC[C@H]1[C@H](OC)[C@@H](C)C(=O)N[C@@H](Cc1ccccc1)c1nccs1)OC)N(C)C(=O)[C@@H](NC(=O)C(C)(C)NC(=O)OCc1ccc(NC(=O)[C@H](CCCNC(N)=O)NC(=O)[C@@H](NC(=O)[C@H](CCCCN)NC(=O)c2cnc[nH]2)C(C)C)cc1)C(C)C [Example 4, N˜2˜-(1H-Imidazol-5-ylcarbonyl)-L-lysyl-L-valyl-N-{4-[(8S,11S,12R)-11-[(2S)-butan-2-yl]-12-(2-{(2S)-2-[(1R,2R)-1-methoxy-2-methyl-3-oxo-3-{[(1S)-2-phenyl-1-(1,3-thiazol-2-yl)ethyl]amino}propyl]pyrrolidin-1-yl}-2-oxoethyl)-5,5,10-trimethyl-3,6,9-trioxo-8-(propan-2-yl)-2,13-dioxa-4,7,10-triazatetradec-1-yl]phenyl}-N˜5˜-carbamoyl-L-ornithinamide] (Imidazole4carbonyl-KV[Cit][PABC][Aib]V[Dil][Dolaproine]-Doe)",DAR after plasma incubation for 3 to 4.5 days,attachment position H16,1.89
same,Conjugate stability (%),attachment position H16,100%
same,DAR,attachment position H16,1.84
"CC[C@H](C)[C@@H]([C@@H](CC(=O)N1CCC[C@H]1[C@H](OC)[C@@H](C)C(=O)N[C@@H](Cc1ccccc1)c1nccs1)OC)N(C)C(=O)[C@@H](NC(=O)C(C)(C)NC(=O)OCc1ccc(NC(=O)[C@H](CCCNC(N)=O)NC(=O)[C@@H](NC(=O)[C@H](CCCCN)NC(=O)Cc2cnc[nH]2)C(C)C)cc1)C(C)C [Example 5, N˜2˜-(1H-Imidazol-5-ylacetyl)-L-lysyl-L-valyl-N-{4-[(8S,11S,12R)-11-[(2S)-butan-2-yl]-12-(2-{(2S)-2-[(1R,2R)-1-methoxy-2-methyl-3-oxo-3-{[(1S)-2-phenyl-1-(1,3-thiazol-2-yl)ethyl]amino}propyl]pyrrolidin-1-yl}-2-oxoethyl)-5,5,10-trimethyl-3,6,9-trioxo-8-(propan-2-yl)-2,13-dioxa-4,7,10-triazatetradec-1-yl]phenyl}-N˜5˜-carbamoyl-L-ornithinamide] ({Acetyl(2-(4-imidazolyl))}-KV[Cit][PABC][Aib]V[Dil][Dolaproine]-Doe)",DAR after plasma incubation for 3 to 4.5 days,attachment position H16,2.0
same,Conjugate stability (%),attachment position H16,100%
same,DAR,attachment position H16,1.96
"CC[C@H](C)[C@@H]([C@@H](CC(=O)N1CCC[C@H]1[C@H](OC)[C@@H](C)C(=O)N[C@@H](Cc1ccccc1)c1nccs1)OC)N(C)C(=O)[C@@H](NC(=O)C(C)(C)NC(=O)OCc1ccc(NC(=O)[C@H](CCCNC(N)=O)NC(=O)[C@@H](NC(=O)[C@H](CCCCN)NC(=O)C(C)C)C(C)C)cc1)C(C)C [Example 7, N˜2˜-(2-Methylpropanoyl)-L-lysyl-L-valyl-N-{4-[(8S,11S,12R)-11-[(2S)-butan-2-yl]-12-(2-{(2S)-2-[(1R,2R)-1-methoxy-2-methyl-3-oxo-3-{[(1S)-2-phenyl-1-(1,3-thiazol-2-yl)ethyl]amino}propyl]pyrrolidin-1-yl}-2-oxoethyl)-5,5,10-trimethyl-3,6,9-trioxo-8-(propan-2-yl)-2,13-dioxa-4,7,10-triazatetradec-1-yl]phenyl}-N˜5˜-carbamoyl-L-ornithinamide] (Isobutyryl-KV[Cit][PABC][Aib]V[Dil][Dolaproine]-Doe)",DAR after plasma incubation for 3 to 4.5 days,attachment position L11B,0
same,Conjugate stability (%),attachment position L11B,0%
same,DAR,attachment position L11B,1.51
"CC[C@H](C)[C@@H]([C@@H](CC(=O)N1CCC[C@H]1[C@H](OC)[C@@H](C)C(=O)N[C@@H](Cc1ccccc1)c1nccs1)OC)N(C)C(=O)[C@@H](NC(=O)C(C)(C)NC(=O)OCc1ccc(NC(=O)[C@H](CCCNC(N)=O)NC(=O)[C@@H](NC(=O)[C@H](CCCCN)NC(=O)CO)C(C)C)cc1)C(C)C [Example 25, N˜2˜-(hydroxyacetyl)-L-lysylvalyl-N-{4-[(8S,11S,12R)-11-[(2S)-butan-2-yl]-12-(2-{(2S)-2-[(1R,2R)-1-methoxy-2-methyl-3-oxo-3-{[(1S)-2-phenyl-1-(1,3-thiazol-2-yl)ethyl]amino}propyl]pyrrolidin-1-yl}-2-oxoethyl)-5,5,10-trimethyl-3,6,9-trioxo-8-(propan-2-yl)-2,13-dioxa-4,7,10-triazatetradec-1-yl]phenyl}-N˜5˜-carbamoyl-L-ornithinamide] (Glycolyl-KV[Cit][PABC][Aib]V[Dil][Dolaproine]-Doe)",Conjugate stability (%),attachment position L11B,84%
same,DAR,attachment position L11B,1.91
"CC[C@H](C)[C@@H]([C@@H](CC(=O)N1CCC[C@H]1[C@H](OC)[C@@H](C)C(=O)N[C@@H](Cc1ccccc1)c1nccs1)OC)N(C)C(=O)[C@@H](NC(=O)C(C)(C)NC(=O)OCc1ccc(NC(=O)[C@H](CCCNC(N)=O)NC(=O)[C@@H](NC(=O)[C@H](CCCCN)NC(=O)NC)C(C)C)cc1)C(C)C [Example 26, N˜2˜-(methylcarbamoyl)-L-lysylvalyl-N-{4-[(8S,11S,12R)-11-[(2S)-butan-2-yl]-12-(2-{(2S)-2-[(1R,2R)-1-methoxy-2-methyl-3-oxo-3-{[(1S)-2-phenyl-1-(1,3-thiazol-2-yl)ethyl]amino}propyl]pyrrolidin-1-yl}-2-oxoethyl)-5,5,10-trimethyl-3,6,9-trioxo-8-(propan-2-yl)-2,13-dioxa-4,7,10-triazatetradec-1-yl]phenyl}-N˜5˜-carbamoyl-L-ornithinamide] ({NHMe-CO}-KV[Cit][PABC][Aib]V[Dil][Dolaproine]-Doe)",DAR after plasma incubation for 3 to 4.5 days,attachment position L11B,1.16
same,Conjugate stability (%),attachment position L11B,60%
same,DAR,attachment position L11B,1.92
"CC[C@H](C)[C@@H]([C@@H](CC(=O)N1CCC[C@H]1[C@H](OC)[C@@H](C)C(=O)N[C@@H](Cc1ccccc1)c1nccs1)OC)N(C)C(=O)[C@@H](NC(=O)C(C)(C)NC(=O)OCc1ccc(NC(=O)[C@H](CCCNC(N)=O)NC(=O)[C@@H](NC(=O)[C@H](CCCCN)NC(=O)CNC)C(C)C)cc1)C(C)C [Example 27, N-methylglycyl-L-lysylvalyl-N-{4-[(8S,11S,12R)-11-[(2S)-butan-2-yl]-12-(2-{(2S)-2-[(1R,2R)-1-methoxy-2-methyl-3-oxo-3-{[(1S)-2-phenyl-1-(1,3-thiazol-2-yl)ethyl]amino}propyl]pyrrolidin-1-yl}-2-oxoethyl)-5,5,10-trimethyl-3,6,9-trioxo-8-(propan-2-yl)-2,13-dioxa-4,7,10-triazatetradec-1-yl]phenyl}-N˜5˜-carbamoyl-L-ornithinamide] (H-[Sar]KV[Cit][PABC][Aib]V[Dil][Dolaproine]-Doe)",DAR after plasma incubation for 3 to 4.5 days,attachment position L11B,0.98
same,Conjugate stability (%),attachment position L11B,57%
same,DAR,attachment position L11B,1.72
"CC[C@H](C)[C@@H]([C@@H](CC(=O)N1CCC[C@H]1[C@H](OC)[C@@H](C)C(=O)N[C@@H](Cc1ccccc1)c1nccs1)OC)N(C)C(=O)[C@@H](NC(=O)C(C)(C)NC(=O)OCc1ccc(NC(=O)[C@H](CCCNC(N)=O)NC(=O)[C@@H](NC(=O)[C@H](CCCCN)NC(=O)CN(C)C)C(C)C)cc1)C(C)C [Example 28, N,N-dimethylglycyl-L-lysylvalyl-N-{4-[(8S,11S,12R)-11-[(2S)-butan-2-yl]-12-(2-{(2S)-2-[(1R,2R)-1-methoxy-2-methyl-3-oxo-3-{[(1S)-2-phenyl-1-(1,3-thiazol-2-yl)ethyl]amino}propyl]pyrrolidin-1-yl}-2-oxoethyl)-5,5,10-trimethyl-3,6,9-trioxo-8-(propan-2-yl)-2,13-dioxa-4,7,10-triazatetradec-1-yl]phenyl}-N˜5˜-carbamoyl-L-ornithinamide] (Me2Gly-KV[Cit][PABC][Aib]V[Dil][Dolaproine]-Doe)",DAR after plasma incubation for 3 to 4.5 days,attachment position L11B,0.07
same,Conjugate stability (%),attachment position L11B,4%
same,DAR,attachment position L11B,1.83
